Data: patent publication US20180250395A1 (Janssen / Centocor, published 2018)
Where two headings read alike, the source gives them in different places.

B1: C47B237 (antibody, V domains shown)
VH: EVQLVQSGAEVKKPGESLKISCKGSGYSFTSYWIGWVRQMPGKGLEWMGIIYPGDSDTRYSPSFQGQVTISADKSISTAYLQWSSLKASDTAMYYCARVGRFASHQLDYWGQGTLVTVSS
VL: EIVLTQSPATLSLSPGERATLSCRASQSVNNRLAWYQQKPGQAPRLLIHWASTRAIGIPARFSGSGSGTDFTLTISSLEPEDFAVYYCQQGASWPFTFGQGTKVEIK
notes: human IgG2sigma/kappa
B2: C47B222 Fab (Fab, V domains shown)
VH: EVQLVQSGAEVKKPGESLKISCKGSGYSFTDYWIGWVRQMPGKGLEWMGIIYPGDSDTRYSPSFQGQVTISADKSISTAYLQWSSLKASDTAVYYCARVGRFASHQLDYWGQGTLVTVSS
VL: EIVLTQSPATLSLSPGERATLSCRASQSVNNRLAWYQQKPGQAPRLLIHWASTRAIGIPARFSGSGSGTDFTLTISSLEPEDFAVYYCQQGASWPFTFGQGTKVEIK
notes: His-tagged Fab from HEK293
B3: C47B241 (antibody, V domains shown)
VH: EVQLVQSGAEVKKPGESLKISCKGSGYSFDDSWIGWVRQMPGKGLEWMGIIYPGDSDTRYSPSFQGQVTISADKSISTAYLQWSSLKASDTAVYYCARVGRFASHQLDYWGQGTLVTVSS
VL: EIVLTQSPATLSLSPGERATLSCRASQSVSNRLAWYQQKPGQAPRLLIYGASNRATGIPARFSGSGSGTDFTLTISSLEPEDFAVYYCQQGRSWPFTFGQGTKVEIK
notes: human IgG2sigma/kappa
B4: C47B240 (antibody, V domains shown)
VH: EVQLVQSGAEVKKPGESLKISCKGSGYSFTSYWIGWVRQMPGKGLEWMGIIYPGDSDTRYSPSFQGQVTISADKSISTAYLQWSSLKASDTAMYYCARVGRFASHQLDYWGQGTLVTVSS
VL: EIVLTQSPATLSLSPGERATLSCRASQSVSNRQAWYQQKPGQAPRLLIHSASNRATGIPARFSGSGSGTDFTLTISSLEPEDFAVYYCQQGRSWPFTFGQGTKVEIK
notes: human IgG2sigma/kappa
B5: C47B244 (antibody, V domains shown)
VH: EVQLVQSGAEVKKPGESLKISCKGSGYSFDDYWIGWVRQMPGKGLEWMGIIYPGDSDTRYSPSFQGQVTISADKSISTAYLQWSSLKASDTAVYYCARVGRFASHQLDYWGQGTLVTVSS
VL: EIVLTQSPATLSLSPGERATLSCRASQSVSNRLAWYQQKPGQAPRLLIYGASNRATGIPARFSGSGSGTDFTLTISSLEPEDFAVYYCQQGRSWPFTFGQGTKVEIK
notes: human IgG2sigma/kappa
B6: C47B243 (antibody, V domains shown)
VH: EVQLVQSGAEVKKPGESLKISCKGSGYSFTDYWIGWVRQMPGKGLEWMGIIYPGDSDTRYSPSFQGQVTISADKSISTAYLQWSSLKASDTAVYYCARVGRFASHQLDYWGQGTLVTVSS
VL: EIVLTQSPATLSLSPGERATLSCRASQSVSNRLAWYQQKPGQAPRLLIYGASNRATGIPARFSGSGSGTDFTLTISSLEPEDFAVYYCQQGRSWPFTFGQGTKVEIK
notes: human IgG2sigma/kappa
B7: C47B242 (antibody, V domains shown)
VH: EVQLVQSGAEVKKPGESLKISCKGSGYSFTDSWIGWVRQMPGKGLEWMGIIYPGDSDTRYSPSFQGQVTISADKSISTAYLQWSSLKASDTAVYYCARVGRFASHQLDYWGQGTLVTVSS
VL: EIVLTQSPATLSLSPGERATLSCRASQSVSNRLAWYQQKPGQAPRLLIYGASNRATGIPARFSGSGSGTDFTLTISSLEPEDFAVYYCQQGRSWPFTFGQGTKVEIK
notes: human IgG2sigma/kappa
B8: C47B227 Fab (Fab, V domains shown)
VH: EVQLVQSGAEVKKPGESLKISCKGSGYSFDDYWIGWVRQMPGKGLEWMGIIYPGDSDTRYSPSFQGQVTISADKSISTAYLQWSSLKASDTAVYYCARVGRFASHQLDYWGQGTLVTVSS
VL: EIVLTQSPATLSLSPGERATLSCRASQSVGSRLAWYQQKPGQAPRLLIYWASTRATGIPARFSGSGSGTDFTLTISSLEPEDFAVYYCQQGAYWPFTFGQGTKVEIK
notes: His-tagged Fab from HEK293
B9: C47B238 (antibody, V domains shown)
VH: EVQLVQSGAEVKKPGESLKISCKGSGYSFTSYWIGWVRQMPGKGLEWMGIIYPGDSDTRYSPSFQGQVTISADKSISTAYLQWSSLKASDTAMYYCARVGRFASHQLDYWGQGTLVTVSS
VL: EIVLTQSPATLSLSPGERATLSCRASQSVGSRLAWYQQKPGQAPRLLIYWASTRATGIPARFSGSGSGTDFTLTISSLEPEDFAVYYCQQGAYWPFTFGQGTKVEIK
notes: human IgG2sigma/kappa
B10: C47B239 (antibody, V domains shown)
VH: EVQLVQSGAEVKKPGESLKISCKGSGYSFTSYWIGWVRQMPGKGLEWMGIIYPGDSDTRYSPSFQGQVTISADKSISTAYLQWSSLKASDTAMYYCARVGRFASHQLDYWGQGTLVTVSS
VL: EIVLTQSPATLSLSPGERATLSCRASQSVSNRLAWYQQKPGQAPRLLIYGASNRATGIPARFSGSGSGTDFTLTISSLEPEDFAVYYCQQGRSWPFTFGQGTKVEIK
notes: human IgG2sigma/kappa
B11: C47B167 Fab (Fab, V domains shown)
VH: EVQLVQSGAEVKKPGESLKISCKGSGYTFTSYWMQWVRQMPGKGLEWMGEINPSNGRTDYNEKFRGQVTISADKSISTAYLQWSSLKASDTAMYYCARQGGSGYGNSYGFFDVWGQGTTVTVSS
VL: EIVLTQSPATLSLSPGERATLSCRASSSVSYMHWYQQKPGQAPRLLIYDTSRLASGIPARFSGSGSGTDFTLTISSLEPEDFAVYYCQQWRSNPYTFGGGTKVEIK
notes: His-tagged Fab from HEK293
B12: C47B152 (antibody, V domains shown)
VH: QVQLVQSGAEVKKPGSSVKVSCKASGYTFTDYNMHWVRQAPGQGLEWMGDIYPYNGGTGYNQKFKGRVTITADESTSTAYMELSSLRSEDTAVYYCARGGWHAMDSWGQGTLVTVSS
VL: EIVLTQSPATLSLSPGERATLSCRSRQSIVHTNRYTYLAWYQQKPGQAPRLLIYKVSNRFSGIPARFSGSGSGTDFTLTISSLEPEDFAVYYCFQGSHVPYTFGGGTKLEIK
notes: HFA variant of C47B116; human IgG2sigma/kappa
B13: C47B161 Fab (Fab, V domains shown)
VH: QVQLVQSGAEVKKPGASVKVSCKASGYTFTDYNMHWVRQAPGQRLEWMGDIYPYNGGTGYNQKFKGRVTITRDTSASTAYMELSSLRSEDTAVYYCARGGWHAMDSWGQGTLVTVSS
VL: DIVMTQSPLSLPVTPGEPASISCRSRQSIVHTNRYTYLAWYLQKPGQSPQLLIYKVSNRFSGVPDRFSGSGSGTDFTLKISRVEAEDVGVYYCFQGSHVPYTFGGGTKLEIK
B14: B6H12.2 Fab (Fab, V domains shown)
VH: EVKLVESGGDLVKPGGSLKLSCAASGFTFSGYGMSWVRQTPDKRLEWVATITSGGTYTYYPDSVKGRFTISRDNAKNTLYLQIDSLKSEDTAIYFCARSLAGNAMDYWGQGTSVTVSS
VL: DIVMTQSPATLSVTPGDRVSLSCRASQTISDYLHWYQQKSHESPRLLIKFASQSISGIPSRFSGSGSGSDFTLSINSVEPEDVGVYYCQNGHGFPRTFGGGTKLEIK
notes: Fab used for co-crystallization
B15: C47B147 (antibody, V domains shown)
VH: EVQLVQSGAEVKKPGESLKISCKGSGYTFTDYNMHWVRQMPGKGLEWMGDIYPYNGGTGYNQKFKGQVTISADKSISTAYLQWSSLKASDTAMYYCARGGWHAMDSWGQGTLVTVSS
VL: DIVMTQSPDSLAVSLGERATINCRSRQSIVHTNRYTYLAWYQQKPGQPPKLLIYKVSNRFSGVPDRFSGSGSGTDFTLTISSLQAEDVAVYYCFQGSHVPYTFGGGTKLEIK
notes: as for B12
B16: C47B151 (antibody, V domains shown)
VH: QVQLVQSGAEVKKPGSSVKVSCKASGYTFTDYNMHWVRQAPGQGLEWMGDIYPYNGGTGYNQKFKGRVTITADESTSTAYMELSSLRSEDTAVYYCARGGWHAMDSWGQGTLVTVSS
VL: DIVMTQSPDSLAVSLGERATINCRSRQSIVHTNRYTYLAWYQQKPGQPPKLLIYKVSNRFSGVPDRFSGSGSGTDFTLTISSLQAEDVAVYYCFQGSHVPYTFGGGTKLEIK
notes: as for B12
B17: C47B148 (antibody, V domains shown)
VH: EVQLVQSGAEVKKPGESLKISCKGSGYTFTDYNMHWVRQMPGKGLEWMGDIYPYNGGTGYNQKFKGQVTISADKSISTAYLQWSSLKASDTAMYYCARGGWHAMDSWGQGTLVTVSS
VL: EIVLTQSPATLSLSPGERATLSCRSRQSIVHTNRYTYLAWYQQKPGQAPRLLIYKVSNRFSGIPARFSGSGSGTDFTLTISSLEPEDFAVYYCFQGSHVPYTFGGGTKLEIK
notes: as for B12

What was measured:
[1] = biological target: T1, Cyno CD47 ECD protein, His-tagged, monomer (cyno); assay: ProteOn SPR; mAb captured, ECD monomer as analyte
T1 construct: extracellular domain; also called cynomolgus CD47

[2] = biological target: T2, recombinant human CD47 extracellular domain (ECD), His-tagged, monomer (human, UniProt Q08722 19-141); assay: ProteOn SPR; mAb captured, ECD monomer as analyte
T2 construct: C-terminal 6xHis tag; monomeric fraction from Superdex 200; also called human CD47 ECD; CD47-ECD monomer

[3] = biological target: T3, recombinant human CD47 extracellular domain (ECD), His-tagged, dimer (human, UniProt Q08722 19-141); assay: MSD; CD47-ECD dimer binding to captured SIRP alpha-Fc, mAb 10 µg/ml
T3 construct: Dimeric fraction of the same His-tagged ECD; also called His-tagged CD47-ECD dimer protein

[4] = biological target: T1, Cyno CD47 ECD protein, His-tagged, …; assay: ProteOn SPR; cyno KD / human KD
[5] = biological target: CD47 ECD-C15G mutant, His-tagged (human, UniProt Q08722 19-141, N-terminus Q1 cyclized as pyroglutamate (C47B161 complex); glycans at 5, 16, 32, 55, 93 except in the endoH-deglycosylated C47B161 complex); assay: Fab:CD47 complex isolated by chromatography and crystallized
Procedure: The His-tagged CD47 was deglycosylated and further purified by affinity chromatography. The complex CD47:Fab was prepared by mixing Fabs with excess CD47 at a molar ratio ranging from 1.2:1.0 to 1.5:1.0. The complex was incubated overnight at 4° C., separated from the uncomplexed species using size exclusion chromatography, and concentrated to 7.5-20 mg/mL in 20 mM HEPES pH 7.4, 100 mM NaCl, 5% glycerol. The concentrated complex was then used to set up crystallization trials using the sitting drop method at 20° C. and crystals were optimized by varying the protein to reservoir ratio.

[6] = biological target: T4, human CD47 on Jurkat cells (human, UniProt Q08722 19-323); assay: MSD on Jurkat cells; blocks SIRP alpha-Fc binding
T4 construct: Endogenous CD47 of the cell lines; also called CD47-expressing Jurkat cells; CD47 on HL60 cells

[7] = biological target: T1, Cyno CD47 ECD protein, His-tagged, …; assay: ProteOn SPR; cyno KD / human KD; remark: listed apart in the source
[8] = biological target: T2, recombinant human CD47 extracellular …; assay: ProteOn SPR
[9] = biological target: T1, Cyno CD47 ECD protein, His-tagged, …; assay: ProteOn SPR; mAb captured, ECD monomer as analyte; remark: listed apart in the source
[10] = biological target: T2, recombinant human CD47 extracellular …; assay: ProteOn SPR; mAb captured, ECD monomer as analyte; remark: listed apart in the source

Binder | Kd [1] [nM] | Kd [2] [nM] | % SIRP alpha Inhibition [3] [%] | KD Ratio Cyno/Human [4] | also measured
B1 | 3.51 | 2.57 | 97.9 | 1.4 | 
B2 |  |  |  |  | binding result [5]: binds
B3 | 2.03 | 2.62 | 99.8 | 0.8 | 
B4 | 9.23 | 8.59 | 93 | 1.1 | 
B5 | 1.55 | 2.12 | 99.8 | 0.7 | 
B6 | 2.08 | 2.02 | 99.8 | 1 | 
B7 | 3.46 | 3.47 | 99.1 | 1 | 
B8 |  |  |  |  | binding result [5]: binds
B9 | 3.73 | 3.53 | 99.1 | 1.1 | 
B10 | 9.7 | 6.69 | 96.7 | 1.4 | 
B11 |  |  |  |  | binding result [5]: binds
B12 |  |  |  |  | EC50 [6]: 0.26 µg/mL
B13 |  |  |  |  | binding result [5]: binds
B14 |  |  |  |  | binding result [5]: binds
B15 |  |  |  |  | KD Ratio Cyno/Human [7]: 1.4; fold decrease of affinity against parent C47B116 [8]: > 6 fold; EC50 [6]: 0.24 µg/mL; Kd [9]: 13.5 nM; Kd [10]: 9.55 nM
B16 |  |  |  |  | KD Ratio Cyno/Human [7]: 1.4; fold decrease of affinity against parent C47B116 [8]: > 6 fold; EC50 [6]: 0.29 µg/mL; Kd [9]: 9.34 nM; Kd [10]: 6.89 nM
B17 |  |  |  |  | EC50 [6]: 0.09 µg/mL
